Assay results from the MegaScale stability set (Tsuboyama et al. 2023).

B1: EHEE_rd2_0191 (parent)
chain: TTEYTFTDDEEARRAIEELKKRGLTFRYEKHGTTWRVRVD

Variants of: B1
Assay: folding stability dG (cDNA display proteolysis); higher = more stable
Settings: PBS, room temperature

Variant	folding stability dG
TTEYTFTDDEEARRAITELKKRGLTFRYEKHGTTWRVRVD	1.89 kcal/mol
TTEYTFTDDEEARRAINELKKRGLTFRYEKHGTTWRVRVD	2.02 kcal/mol
TTEYTFTDDEEARRAIIELKKRGLTFRYEKHGTTWRVRVD	2.01 kcal/mol
TTEYTFTDDEEARRAIWELKKRGLTFRYEKHGTTWRVRVD	2.07 kcal/mol
TTEYTFTDDEEARRAIHELKKRGLTFRYEKHGTTWRVRVD	1.88 kcal/mol
TTEYTFTDDEEARRAIKELKKRGLTFRYEKHGTTWRVRVD	2 kcal/mol
TTEYTFTDDEEARRAIAELKKRGLTFRYEKHGTTWRVRVD	2.25 kcal/mol
TTEYTFTDDEEARRAIGELKKRGLTFRYEKHGTTWRVRVD	1.71 kcal/mol
TTEYTFTDDEEARRAIFELKKRGLTFRYEKHGTTWRVRVD	1.97 kcal/mol
TTEYTFTDDEEARRAIRELKKRGLTFRYEKHGTTWRVRVD	2.23 kcal/mol
TTEYTFTDDEEARRAIDELKKRGLTFRYEKHGTTWRVRVD	1.95 kcal/mol
TTEYTFTDDEEARRAIQELKKRGLTFRYEKHGTTWRVRVD	2.04 kcal/mol
TTEYTFTDDEEARRAIVELKKRGLTFRYEKHGTTWRVRVD	1.83 kcal/mol
TTEYTFTDDEEARRAILELKKRGLTFRYEKHGTTWRVRVD	2.11 kcal/mol
TTEYTFTDDEEARRAISELKKRGLTFRYEKHGTTWRVRVD	1.97 kcal/mol
TTEYTFTDDEEARRAIYELKKRGLTFRYEKHGTTWRVRVD	2.02 kcal/mol
TTEYTFTDDEEARRAIMELKKRGLTFRYEKHGTTWRVRVD	2.1 kcal/mol
TTEYTFTDDEEARRAWEELKKRGLTFRYEKHGTTWRVRVD	0.024 kcal/mol
TTEYTFTDDEEARRAYEELKKRGLTFRYEKHGTTWRVRVD	-0.65 kcal/mol
TTEYTFTDDEEARRAGEELKKRGLTFRYEKHGTTWRVRVD	-0.247 kcal/mol
TTEYTFTDDEEARRAFEELKKRGLTFRYEKHGTTWRVRVD	1.37 kcal/mol
TTEYTFTDDEEARRAAEELKKRGLTFRYEKHGTTWRVRVD	-0.729 kcal/mol
TTEYTFTDDEEARRANEELKKRGLTFRYEKHGTTWRVRVD	0.255 kcal/mol
TTEYTFTDDEEARRATEELKKRGLTFRYEKHGTTWRVRVD	-0.106 kcal/mol
TTEYTFTDDEEARRAVEELKKRGLTFRYEKHGTTWRVRVD	1.12 kcal/mol

Variant	folding stability dG
TTEYTFTDDEEARRACEELKKRGLTFRYEKHGTTWRVRVD	1.58 kcal/mol
TTEYTFTDDEEARRALEELKKRGLTFRYEKHGTTWRVRVD	1.64 kcal/mol
TTEYTFTDDEEARRAMEELKKRGLTFRYEKHGTTWRVRVD	2.23 kcal/mol
TTEYTFTDDEEARRSIEELKKRGLTFRYEKHGTTWRVRVD	1.07 kcal/mol
TTEYTFTDDEEARRHIEELKKRGLTFRYEKHGTTWRVRVD	1.73 kcal/mol
TTEYTFTDDEEARRFIEELKKRGLTFRYEKHGTTWRVRVD	4.89 kcal/mol
TTEYTFTDDEEARRQIEELKKRGLTFRYEKHGTTWRVRVD	1.29 kcal/mol
TTEYTFTDDEEARRGIEELKKRGLTFRYEKHGTTWRVRVD	1.06 kcal/mol
TTEYTFTDDEEARRMIEELKKRGLTFRYEKHGTTWRVRVD	2.85 kcal/mol
TTEYTFTDDEEARREIEELKKRGLTFRYEKHGTTWRVRVD	0.719 kcal/mol
TTEYTFTDDEEARRNIEELKKRGLTFRYEKHGTTWRVRVD	0.878 kcal/mol
TTEYTFTDDEEARRIIEELKKRGLTFRYEKHGTTWRVRVD	2.02 kcal/mol
TTEYTFTDDEEARRWIEELKKRGLTFRYEKHGTTWRVRVD	2.9 kcal/mol
TTEYTFTDDEEARRLIEELKKRGLTFRYEKHGTTWRVRVD	2.63 kcal/mol
TTEYTFTDDEEARRCIEELKKRGLTFRYEKHGTTWRVRVD	3.17 kcal/mol
TTEYTFTDDEEARRTIEELKKRGLTFRYEKHGTTWRVRVD	1.94 kcal/mol
TTEYTFTDDEEARRVIEELKKRGLTFRYEKHGTTWRVRVD	2.36 kcal/mol
TTEYTFTDDEEARRRIEELKKRGLTFRYEKHGTTWRVRVD	1.08 kcal/mol
TTEYTFTDDEEARRKIEELKKRGLTFRYEKHGTTWRVRVD	1.97 kcal/mol
TTEYTFTDDEEARRYIEELKKRGLTFRYEKHGTTWRVRVD	2.87 kcal/mol
TTEYTFTDDEEARRAIEEAKKRGLTFRYEKHGTTWRVRVD	0.832 kcal/mol
TTEYTFTDDEEARRAIEEIKKRGLTFRYEKHGTTWRVRVD	1.55 kcal/mol
TTEYTFTDDEEARRAIEEVKKRGLTFRYEKHGTTWRVRVD	0.238 kcal/mol
TTEYTFTDDEEARRAIEEWKKRGLTFRYEKHGTTWRVRVD	1.94 kcal/mol
TTEYTFTDDEEARRAIEEYKKRGLTFRYEKHGTTWRVRVD	1.58 kcal/mol

Variant	folding stability dG
TTEYTFTDDEEARRAIEEFKKRGLTFRYEKHGTTWRVRVD	2.64 kcal/mol
TTEYTFTDDEEARRAIEEMKKRGLTFRYEKHGTTWRVRVD	1.73 kcal/mol
TTEYTFTDDEEARRAIEELCKRGLTFRYEKHGTTWRVRVD	2.56 kcal/mol
TTEYTFTDDEEARRAIEELMKRGLTFRYEKHGTTWRVRVD	2.15 kcal/mol
TTEYTFTDDEEARRAIEELGKRGLTFRYEKHGTTWRVRVD	1.41 kcal/mol
TTEYTFTDDEEARRAIEELWKRGLTFRYEKHGTTWRVRVD	1.75 kcal/mol
TTEYTFTDDEEARRAIEELAKRGLTFRYEKHGTTWRVRVD	1.81 kcal/mol
TTEYTFTDDEEARRAIEELYKRGLTFRYEKHGTTWRVRVD	1.99 kcal/mol
TTEYTFTDDEEARRAIEELHKRGLTFRYEKHGTTWRVRVD	1.71 kcal/mol
TTEYTFTDDEEARRAIEELFKRGLTFRYEKHGTTWRVRVD	2.02 kcal/mol
TTEYTFTDDEEARRAIEELSKRGLTFRYEKHGTTWRVRVD	1.81 kcal/mol
TTEYTFTDDEEARRAIEELDKRGLTFRYEKHGTTWRVRVD	1.15 kcal/mol
TTEYTFTDDEEARRAIEELLKRGLTFRYEKHGTTWRVRVD	2.15 kcal/mol
TTEYTFTDDEEARRAIEELRKRGLTFRYEKHGTTWRVRVD	2.27 kcal/mol
TTEYTFTDDEEARRAIEELNKRGLTFRYEKHGTTWRVRVD	1.54 kcal/mol
TTEYTFTDDEEARRAIEELVKRGLTFRYEKHGTTWRVRVD	2.07 kcal/mol
TTEYTFTDDEEARRAIEELQKRGLTFRYEKHGTTWRVRVD	2 kcal/mol
TTEYTFTDDEEARRAIEELEKRGLTFRYEKHGTTWRVRVD	1.86 kcal/mol
TTEYTFTDDEEARRAIEELTKRGLTFRYEKHGTTWRVRVD	2.12 kcal/mol
TTEYTFTDDEEARRAIEELIKRGLTFRYEKHGTTWRVRVD	2.42 kcal/mol
TTEYTFTDDEEARSAIEELKKRGLTFRYEKHGTTWRVRVD	1.75 kcal/mol
TTEYTFTDDEEARIAIEELKKRGLTFRYEKHGTTWRVRVD	1.93 kcal/mol
TTEYTFTDDEEARTAIEELKKRGLTFRYEKHGTTWRVRVD	1.73 kcal/mol
TTEYTFTDDEEARKAIEELKKRGLTFRYEKHGTTWRVRVD	2.12 kcal/mol
TTEYTFTDDEEARVAIEELKKRGLTFRYEKHGTTWRVRVD	1.78 kcal/mol

Variant	folding stability dG
TTEYTFTDDEEARYAIEELKKRGLTFRYEKHGTTWRVRVD	1.64 kcal/mol
TTEYTFTDDEEARHAIEELKKRGLTFRYEKHGTTWRVRVD	1.82 kcal/mol
TTEYTFTDDEEARFAIEELKKRGLTFRYEKHGTTWRVRVD	1.64 kcal/mol
TTEYTFTDDEEARGAIEELKKRGLTFRYEKHGTTWRVRVD	1.35 kcal/mol
TTEYTFTDDEEARDAIEELKKRGLTFRYEKHGTTWRVRVD	1.45 kcal/mol
TTEYTFTDDEEARQAIEELKKRGLTFRYEKHGTTWRVRVD	1.9 kcal/mol
TTEYTFTDDEEARAAIEELKKRGLTFRYEKHGTTWRVRVD	2.1 kcal/mol
TTEYTFTDDEEAREAIEELKKRGLTFRYEKHGTTWRVRVD	1.7 kcal/mol
TTEYTFTDDEEARNAIEELKKRGLTFRYEKHGTTWRVRVD	1.84 kcal/mol
TTEYTFTDDEEARMAIEELKKRGLTFRYEKHGTTWRVRVD	1.97 kcal/mol
TTEYTFTDDEEARWAIEELKKRGLTFRYEKHGTTWRVRVD	1.68 kcal/mol
TTEYTFTDDEEARLAIEELKKRGLTFRYEKHGTTWRVRVD	1.91 kcal/mol
TTEYTFTDDEEARRAIEGLKKRGLTFRYEKHGTTWRVRVD	1.74 kcal/mol
TTEYTFTDDEEARRAIEYLKKRGLTFRYEKHGTTWRVRVD	2.29 kcal/mol
TTEYTFTDDEEARRAIERLKKRGLTFRYEKHGTTWRVRVD	1.7 kcal/mol
TTEYTFTDDEEARRAIEWLKKRGLTFRYEKHGTTWRVRVD	2.69 kcal/mol
TTEYTFTDDEEARRAIEILKKRGLTFRYEKHGTTWRVRVD	2.15 kcal/mol
TTEYTFTDDEEARRAIELLKKRGLTFRYEKHGTTWRVRVD	2.08 kcal/mol
TTEYTFTDDEEARRAIENLKKRGLTFRYEKHGTTWRVRVD	1.9 kcal/mol
TTEYTFTDDEEARRAIEDLKKRGLTFRYEKHGTTWRVRVD	2.03 kcal/mol
TTEYTFTDDEEARRAIEMLKKRGLTFRYEKHGTTWRVRVD	2.11 kcal/mol
TTEYTFTDDEEARRAIEHLKKRGLTFRYEKHGTTWRVRVD	1.86 kcal/mol
TTEYTFTDDEEARRAIEKLKKRGLTFRYEKHGTTWRVRVD	1.74 kcal/mol
TTEYTFTDDEEARRAIESLKKRGLTFRYEKHGTTWRVRVD	1.99 kcal/mol
TTEYTFTDDEEARRAIEVLKKRGLTFRYEKHGTTWRVRVD	1.96 kcal/mol

Variant	folding stability dG
TTEYTFTDDEEARRAIEALKKRGLTFRYEKHGTTWRVRVD	2.01 kcal/mol
TTEYTFTDDEEARRAIETLKKRGLTFRYEKHGTTWRVRVD	1.84 kcal/mol
TTEYTFTDDEEARRAIEQLKKRGLTFRYEKHGTTWRVRVD	1.97 kcal/mol
TTEYTFTDDEEARRAIEFLKKRGLTFRYEKHGTTWRVRVD	2.12 kcal/mol
TTEYTFTDDEEARRAIEELKERGLTFRYEKHGTTWRVRVD	1.71 kcal/mol
TTEYTFTDDEEARRAIEELKCRGLTFRYEKHGTTWRVRVD	2.13 kcal/mol
TTEYTFTDDEEARRAIEELKMRGLTFRYEKHGTTWRVRVD	1.9 kcal/mol
TTEYTFTDDEEARRAIEELKIRGLTFRYEKHGTTWRVRVD	1.79 kcal/mol
TTEYTFTDDEEARRAIEELKDRGLTFRYEKHGTTWRVRVD	1.32 kcal/mol
TTEYTFTDDEEARRAIEELKQRGLTFRYEKHGTTWRVRVD	1.81 kcal/mol
TTEYTFTDDEEARRAIEELKARGLTFRYEKHGTTWRVRVD	2.12 kcal/mol
TTEYTFTDDEEARRAIEELKHRGLTFRYEKHGTTWRVRVD	1.58 kcal/mol
TTEYTFTDDEEARRAIEELKLRGLTFRYEKHGTTWRVRVD	1.94 kcal/mol
TTEYTFTDDEEARRAIEELKGRGLTFRYEKHGTTWRVRVD	1.45 kcal/mol
TTEYTFTDDEEARRAIEELKFRGLTFRYEKHGTTWRVRVD	1.63 kcal/mol
TTEYTFTDDEEARRAIEELKNRGLTFRYEKHGTTWRVRVD	1.78 kcal/mol
TTEYTFTDDEEAVRAIEELKKRGLTFRYEKHGTTWRVRVD	1.69 kcal/mol
TTEYTFTDDEEASRAIEELKKRGLTFRYEKHGTTWRVRVD	1.55 kcal/mol
TTEYTFTDDEEAMRAIEELKKRGLTFRYEKHGTTWRVRVD	2.42 kcal/mol
TTEYTFTDDEEATRAIEELKKRGLTFRYEKHGTTWRVRVD	1.83 kcal/mol
TTEYTFTDDEEAYRAIEELKKRGLTFRYEKHGTTWRVRVD	2.2 kcal/mol
TTEYTFTDDEEALRAIEELKKRGLTFRYEKHGTTWRVRVD	2.3 kcal/mol
TTEYTFTDDEEANRAIEELKKRGLTFRYEKHGTTWRVRVD	1.68 kcal/mol
TTEYTFTDDEEAWRAIEELKKRGLTFRYEKHGTTWRVRVD	2.52 kcal/mol
TTEYTFTDDEEAQRAIEELKKRGLTFRYEKHGTTWRVRVD	1.94 kcal/mol
